{"source": "patent US20160199445A1", "about": "“USE OF ARPIN A NEW INHIBITOR OF THE ARP2/3 COMPLEX FOR THE DIAGNOSIS AND TREATMENT OF DISEASES” (CENTRE NATIONAL DE LA RECHERCHE SCIENTIFIQUE, priority 2013, published 2016)", "key": {"[1]": {"target": "Purified Arp2/3 complex", "test": "fluorescence anisotropy, competition with labelled ArpinA bound to purified Arp2/3 complex"}, "[2]": {"target": "Purified Arp2/3 complex", "test": "fluorescence anisotropy; labelled ArpinA peptide bound to purified Arp2/3 titrated with purified Arpin FL"}}}
{"substance": "Human full length Arpin (residues 1-226), purified from E. coli, cleaved off GST by TEV protease (from UniProt Q7Z6K5 1-226)", "values": [{"measurement": "IC50 (read off the curve)", "setting": "[1]", "result": 300, "unit": "nM"}, {"measurement": "Kd", "setting": "[1]", "result": 205, "unit": "nM"}, {"measurement": "Kd", "setting": "[2]", "result": 200, "unit": "nM"}]}
